Laboratory results reported in US20100120675A1 (CONSEJO SUPERIOR DE INVESTIGACIONES CIENTIFICAS, published 2010).

T1: UDG enzyme of E. coli (E. coli, UniProt P12295 2-229)
T1 construct: Commercial enzyme; also called UDG of E. coli (New England Biolabs)
T1 sequence: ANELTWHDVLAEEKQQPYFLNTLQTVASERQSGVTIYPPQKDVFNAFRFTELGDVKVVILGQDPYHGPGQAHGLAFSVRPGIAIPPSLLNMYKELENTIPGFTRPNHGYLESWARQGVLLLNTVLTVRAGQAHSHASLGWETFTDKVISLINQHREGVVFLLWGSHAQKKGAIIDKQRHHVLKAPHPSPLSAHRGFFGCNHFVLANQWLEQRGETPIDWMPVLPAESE

T2: UDG enzyme of B. subtilis (Bacillus subtilis, UniProt P39615 1-225)
T2 construct: Endogenous enzyme of the B. subtilis 110NA extract, identified by peptide mass fingerprinting (MASCOT); also called UDG of B. subtilis; protein D
T2 sequence: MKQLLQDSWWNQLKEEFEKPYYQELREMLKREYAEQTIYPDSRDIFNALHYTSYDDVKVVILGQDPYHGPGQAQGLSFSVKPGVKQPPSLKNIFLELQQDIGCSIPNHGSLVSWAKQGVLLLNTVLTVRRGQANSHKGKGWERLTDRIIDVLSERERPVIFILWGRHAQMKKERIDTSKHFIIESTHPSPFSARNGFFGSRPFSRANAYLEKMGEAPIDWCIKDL


Experiments:
UDG enzyme of E. coli = molecular target: T1, UDG enzyme of E. coli; assay: native polyacrylamide gel (16%) of p56 (2 µg) incubated with E. coli UDG (0.2 µg); Western blot and peptide mass fingerprinting of the band
[1] = molecular target: T2, UDG enzyme of B. subtilis; assay: affinity chromatography of B. subtilis 110NA[pPR53.p56FLAG] lysate on anti-FLAG M2 column, elution with FLAG peptide, SDS gel, peptide mass fingerprinting
Method: In order to analyse whether the UDG enzyme is a cellular target of protein p56, affinity chromatography assays were performed. […] The culture was concentrated 10-fold in TBS buffer (50 mM Tris-HCl, pH 7.5, 150 mM NaCl) and was lysed using the French press (20,000 psi). The lysate was centrifuged at 7,000 rpm and 4° C. in the Sorvall-SS.34 rotor for 10 minutes. The supernatant was loaded in an anti-FLAG M2 column (Sigma). The proteins bound to the column were eluted with the TBS buffer containing the FLAG peptide (500 μg/ml) (Sigma). […] The gel was stained with SyproRuby (Molecular Probes). As a negative control, an extract from the 110NA[pPR53] strain was used.

Row | Binder | binding result (UDG enzyme of E. coli) | binding result [1]
1 | protein p56 of the phi29 (φ29) bacteriophage (other, Untagged, purified as in section 1.4; also called protein of the invention) MVQNDFVDSYDVTMLLQDDDGKQYYEYHKGLSLSDFEVLYGNTADEIIKLRLDKVL | binds | –
2 | protein p56FLAG (other, Produced constitutively in B. subtilis 110NA[pPR53.p56FLAG]; Captured from the cell lysate on an anti-FLAG M2 column) MVQNDFVDSYDVTMLLQDDDGKQYYEYHKGLSLSDFEVLYGNTADEIIKLRLDKVLDYKDDDDK | – | binds
